These are literature values, as cited in publication PMC10552185.

Usually Kd stands for the concentration at which binding is half-saturated.

The target of the series is RegA (Dictyostelium discoideum) (UniProt Q23917).
RegA (Dictyostelium discoideum), sequence (Q23917 whole entry): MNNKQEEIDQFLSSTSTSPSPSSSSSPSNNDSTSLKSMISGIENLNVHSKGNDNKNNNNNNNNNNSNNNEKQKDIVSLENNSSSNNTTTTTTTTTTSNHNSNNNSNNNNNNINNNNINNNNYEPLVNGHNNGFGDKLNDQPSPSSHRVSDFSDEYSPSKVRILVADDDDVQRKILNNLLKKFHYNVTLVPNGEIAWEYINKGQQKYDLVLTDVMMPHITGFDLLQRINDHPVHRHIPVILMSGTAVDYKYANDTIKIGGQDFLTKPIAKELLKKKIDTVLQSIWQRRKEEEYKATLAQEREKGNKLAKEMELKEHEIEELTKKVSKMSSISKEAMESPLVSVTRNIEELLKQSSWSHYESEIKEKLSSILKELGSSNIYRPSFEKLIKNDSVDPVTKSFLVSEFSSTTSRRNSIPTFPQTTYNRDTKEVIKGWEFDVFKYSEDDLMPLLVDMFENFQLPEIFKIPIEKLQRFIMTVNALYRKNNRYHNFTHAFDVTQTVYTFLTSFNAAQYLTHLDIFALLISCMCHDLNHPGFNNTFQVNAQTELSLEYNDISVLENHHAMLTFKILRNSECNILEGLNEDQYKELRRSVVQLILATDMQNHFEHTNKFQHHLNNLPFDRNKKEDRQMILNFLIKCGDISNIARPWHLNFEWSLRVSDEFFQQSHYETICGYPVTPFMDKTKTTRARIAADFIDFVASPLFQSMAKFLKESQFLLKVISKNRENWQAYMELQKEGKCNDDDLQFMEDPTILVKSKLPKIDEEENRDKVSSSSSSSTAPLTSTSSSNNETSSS

For PKA RIα (from UniProt P10644), the Kd was 100 nM.
